B1: TPR t1 (parent)
chain: GACCAAUCUGCCCUCAGAGCUCGAGAACAUCUUCGGAUGCAGAGGAGGCAGGCUUCGGUGGCGCGAUAGCGCCAACGUCCUCAACCUCCAAUGCAUCCCACCACAUGAUGAUGCCUGAAGAGCCUUGGUUUUUUG

Variants of: B1
Assay: polymerase ribozyme fitness, log enrichment relative to wild type (log ratio); higher = more active; in vitro selection for triplet polymerase activity
In short: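 Mutant libraries of each subunit of a heterodimeric triplet polymerase ribozyme were built by PCR and transcribed. Each library went through one round of in vitro selection in triplicate: annealing with biotinylated primer, partner subunit and triplets, frozen incubation at −7 °C, gel excision of extended constructs, streptavidin-bead capture and RT-PCR. Input and output libraries were Illumina-sequenced; only genotypes with ≥10 input reads and ≥1 read per output were kept. Fitness is log2(genotype enrichment/wild-type enrichment), using inverse-variance-weighted replicate averages.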

Which “polymerase ribozyme fitness (log ratio)” value does the source give for A6C C8A A121C here?
The value was 1.45.

With G17A C62A as the variant, how does the “polymerase ribozyme fitness (log ratio)” value read?
Its value is -4.08.

Which “polymerase ribozyme fitness (log ratio)” value does the source give for U55C G57U U59A C89U here?
Its value is -2.23.

For C40U G63C C115A G135U, which “polymerase ribozyme fitness (log ratio)” value is on record?
The value was -1.95.

With U9C C11G G36U U116A C123G as the variant, how does the “polymerase ribozyme fitness (log ratio)” value read?
The value was -1.92.

Which “polymerase ribozyme fitness (log ratio)” value does the source give for U32C C82G U87A here?
The value was -2.42.

Which “polymerase ribozyme fitness (log ratio)” value does the source give for G93U C114A here?
Its value is -3.05.

Which “polymerase ribozyme fitness (log ratio)” value does the source give for C49U G51U C62U C80A here?
The value was -3.6.

Which “polymerase ribozyme fitness (log ratio)” value does the source give for C3G C13A A18G G25U G63A A111C A118G here?
The value was -6.44.

Which “polymerase ribozyme fitness (log ratio)” value does the source give for C13U U30C A46U here?
The value was -5.06.

With C40U G61U G71A C99U G120A as the variant, how does the “polymerase ribozyme fitness (log ratio)” value read?
The value was -6.74.

For G42U G52A C72U U78A G128U, which “polymerase ribozyme fitness (log ratio)” value is on record?
The value was -4.36.

With U54C G61U U116A U131C as the variant, how does the “polymerase ribozyme fitness (log ratio)” value read?
Its value is -2.5.

For G10A C20U C97G C123U, which “polymerase ribozyme fitness (log ratio)” value is on record?
Its value is -3.15.

With C13A G44C U116G C124G as the variant, how does the “polymerase ribozyme fitness (log ratio)” value read?
The value was -2.72.

With A66C C88U G113U as the variant, how does the “polymerase ribozyme fitness (log ratio)” value read?
The value was -5.8.

With C31G C72G as the variant, how does the “polymerase ribozyme fitness (log ratio)” value read?
The value was -6.27.

Which “polymerase ribozyme fitness (log ratio)” value does the source give for A18U C62U C86A C114U here?
Its value is -5.98.

Which “polymerase ribozyme fitness (log ratio)” value does the source give for G35C A46C A118U C123G here?
The value was -4.04.

With A24U C72G A95C G110U as the variant, how does the “polymerase ribozyme fitness (log ratio)” value read?
Its value is -7.4.

Which “polymerase ribozyme fitness (log ratio)” value does the source give for C28G G63A A84C A121U here?
The value was -3.21.

With G63A G120C as the variant, how does the “polymerase ribozyme fitness (log ratio)” value read?
The value was 0.337.

For C20A C70A, which “polymerase ribozyme fitness (log ratio)” value is on record?
Its value is -4.86.

Which “polymerase ribozyme fitness (log ratio)” value does the source give for A6U U129A here?
Its value is -1.16.

Which “polymerase ribozyme fitness (log ratio)” value does the source give for G61A U92C C114A here?
Its value is -2.51.

With C11G G71A C80G G128A as the variant, how does the “polymerase ribozyme fitness (log ratio)” value read?
The value was -6.67.

Which “polymerase ribozyme fitness (log ratio)” value does the source give for C22U G63A here?
Its value is -4.36.

Which “polymerase ribozyme fitness (log ratio)” value does the source give for C85G C89U G110U here?
The value was -2.09.

For G60A U125G, which “polymerase ribozyme fitness (log ratio)” value is on record?
Its value is -0.67.

Which “polymerase ribozyme fitness (log ratio)” value does the source give for C40U C73A C101U here?
The value was -0.192.

Which “polymerase ribozyme fitness (log ratio)” value does the source give for A46U C62A U133A here?
Its value is -2.52.

For G17U G61A C72A C89A, which “polymerase ribozyme fitness (log ratio)” value is on record?
Its value is -4.9.

For G61A C72G, which “polymerase ribozyme fitness (log ratio)” value is on record?
The value was 0.08.

For C12U G39U G61C C88G, which “polymerase ribozyme fitness (log ratio)” value is on record?
Its value is -3.48.

For C49A C70A C97A G120U U130G, which “polymerase ribozyme fitness (log ratio)” value is on record?
The value was -6.14.

For U7A G39A A50U C53G U130C, which “polymerase ribozyme fitness (log ratio)” value is on record?
The value was -4.47.

With C15A A27C as the variant, how does the “polymerase ribozyme fitness (log ratio)” value read?
The value was -4.33.

For C11U U96A, which “polymerase ribozyme fitness (log ratio)” value is on record?
Its value is -1.94.

For G57C G58A A83U C86A G117U C123U, which “polymerase ribozyme fitness (log ratio)” value is on record?
Its value is -6.95.

Which “polymerase ribozyme fitness (log ratio)” value does the source give for G47A C104U here?
Its value is -1.4.

Which “polymerase ribozyme fitness (log ratio)” value does the source give for G69U A84C here?
Its value is 0.129.

Which “polymerase ribozyme fitness (log ratio)” value does the source give for U7A G47A here?
The value was -0.612.

With G47U U55A C70U C94G as the variant, how does the “polymerase ribozyme fitness (log ratio)” value read?
The value was -4.62.

Which “polymerase ribozyme fitness (log ratio)” value does the source give for U32C G35U A108G A121G here?
Its value is -7.39.

Which “polymerase ribozyme fitness (log ratio)” value does the source give for C8U G52U G61C C73G U87C U130A here?
Its value is -2.65.

Which “polymerase ribozyme fitness (log ratio)” value does the source give for C49U G63U here?
Its value is -2.

For C8G G61A U109A U132C, which “polymerase ribozyme fitness (log ratio)” value is on record?
The value was -4.05.

Which “polymerase ribozyme fitness (log ratio)” value does the source give for C85A C99U G113A here?
Its value is -4.82.

With C22A U54C as the variant, how does the “polymerase ribozyme fitness (log ratio)” value read?
The value was -4.71.

For C56G G63A G77U G120C, which “polymerase ribozyme fitness (log ratio)” value is on record?
The value was 0.612.

With C11G C15U G25C G69C A111C A118G as the variant, how does the “polymerase ribozyme fitness (log ratio)” value read?
Its value is -6.31.

Which “polymerase ribozyme fitness (log ratio)” value does the source give for U7C C101G here?
The value was -1.98.

Which “polymerase ribozyme fitness (log ratio)” value does the source give for A24G C64U here?
Its value is -1.79.

With C123U U126A G135U as the variant, how does the “polymerase ribozyme fitness (log ratio)” value read?
Its value is 0.771.

Which “polymerase ribozyme fitness (log ratio)” value does the source give for G60C C70A U78A C85G C98U G117C here?
The value was -6.56.

Which “polymerase ribozyme fitness (log ratio)” value does the source give for C53U G63A C102A A103U here?
The value was -7.55.

Which “polymerase ribozyme fitness (log ratio)” value does the source give for A43C G47A here?
The value was -4.53.

For C79U U130A, which “polymerase ribozyme fitness (log ratio)” value is on record?
Its value is -1.2.

With G57C G107C as the variant, how does the “polymerase ribozyme fitness (log ratio)” value read?
The value was -6.59.

With G45U C101U G113A as the variant, how does the “polymerase ribozyme fitness (log ratio)” value read?
Its value is -2.93.

Which “polymerase ribozyme fitness (log ratio)” value does the source give for U14A A46C U81C C82U here?
The value was -3.9.

With A41C C104G G107U G110U as the variant, how does the “polymerase ribozyme fitness (log ratio)” value read?
Its value is -7.15.

For A41G G52C A66C C97U, which “polymerase ribozyme fitness (log ratio)” value is on record?
The value was -3.69.

Which “polymerase ribozyme fitness (log ratio)” value does the source give for A43U C62G C82A C101A C123G here?
The value was -4.38.

With A29G A37C G71U G117U as the variant, how does the “polymerase ribozyme fitness (log ratio)” value read?
Its value is -4.47.

With C28A G45A C53U G61A G110C as the variant, how does the “polymerase ribozyme fitness (log ratio)” value read?
Its value is -1.65.

Which “polymerase ribozyme fitness (log ratio)” value does the source give for A43U U87A G117A here?
Its value is -3.08.

For G39U C79U C89A A111U, which “polymerase ribozyme fitness (log ratio)” value is on record?
The value was -5.59.

For C62G C102U, which “polymerase ribozyme fitness (log ratio)” value is on record?
Its value is -4.74.

With A6C C101A U132A as the variant, how does the “polymerase ribozyme fitness (log ratio)” value read?
Its value is -1.42.

With G35A C123G U129G as the variant, how does the “polymerase ribozyme fitness (log ratio)” value read?
Its value is -2.61.

With G19A C20A A66G G69U U96A as the variant, how does the “polymerase ribozyme fitness (log ratio)” value read?
The value was -4.02.

For C15A C124G, which “polymerase ribozyme fitness (log ratio)” value is on record?
The value was 0.792.

For C15G G25U C34G G60C U109G, which “polymerase ribozyme fitness (log ratio)” value is on record?
The value was -6.48.

For A24G G71U U106A, which “polymerase ribozyme fitness (log ratio)” value is on record?
The value was -2.23.

With A6C U9G G47C G63A A83U G120U as the variant, how does the “polymerase ribozyme fitness (log ratio)” value read?
The value was -1.35.

For A66G U78C U87G, which “polymerase ribozyme fitness (log ratio)” value is on record?
The value was -0.388.

With A5U A41U C82G G120A U125G as the variant, how does the “polymerase ribozyme fitness (log ratio)” value read?
The value was -2.77.

With A46C G128C as the variant, how does the “polymerase ribozyme fitness (log ratio)” value read?
Its value is -3.42.

Which “polymerase ribozyme fitness (log ratio)” value does the source give for G48A G93C C114A here?
Its value is -2.27.

For G35C G47A C56U A111G, which “polymerase ribozyme fitness (log ratio)” value is on record?
The value was -5.32.

Which “polymerase ribozyme fitness (log ratio)” value does the source give for G60U A90C here?
Its value is -1.12.

Which “polymerase ribozyme fitness (log ratio)” value does the source give for G48A G93A C114G here?
The value was -3.84.
